B1: Myo6 875-940 (N-terminal 6xHis-tag, pET14) (domain or fragment, mouse, UniProt Q64331 875-940, looked up)
chain: EISIDALMAKIKSTMMTREQIQKEYDALVKSSEDLLSALQKKKQQEEEAERLRRIQEEMEKERKRR
notes: mouse myosin VI aa 875-940: 2nd and 3rd helix of the 3HB and first part of the SAH; also called aa 875-940; 875-940 peptide; source: E. coli BL21 (DE3), purified (IMAC, SEC)
B2: Myo6 875-940 (his-rTEV-875-940, pProEX-HTb) (domain or fragment, mouse, UniProt Q64331 875-940, looked up)
chain: B1 chain
notes: mouse myosin VI aa 875-940; Made for crystallization; also called Myo6 875-940 WT; 875-940 peptide; source: E. coli BL21 (DE3), purified (IMAC, rTEV, SEC); not shown: His6, N-terminal, cleaved
B3: Myo6 Ins2/IQ/3HB (aa 783-917) (domain or fragment, human, UniProt Q9UM54-5 783-917, looked up)
chain: RVNHWLTCSRWKKVQWCSLSVIKLKNKIKYRAEACIKMQKTIRMWLCKRRHKPRIDGLVKVGTLKKRLDKFNEVVSVLKDGKPEMNKQIKNLEISIDTLMAKIKSTMMTQEQIQKEYDALVKSSEELLSALQKKK
notes: human myosin VI, aa 783-917 (insert-2, IQ, 3-helix bundle), from the human FLMyo6 no-insert construct; source: E. coli BL21 (DE3), purified (IMAC, SEC); not shown: His6, N-terminal, cleaved
B4: Myo6 ^YFPCBD (WT) (domain or fragment, mouse, UniProt Q64331 1032-1262, looked up)
chain: MALRRGPAVQATKAAAGTKKHDLSKWKYAELRDTINTSCDIELLAACREEFHRRLKVYHAWKSKNKKRNTETEQRAPKSVTDYDFAPFLNNSPQQNPAAQLPARQQEIDMKRQQRFFRIPFIRPADQYKDPQNKKKGWWYAHFDGPWIARQMELHPDKPPILLVAGKDDMEMCELNLEETGLTRKRGAEILPRQFEEIWERCGGIQYLQSAIESRQARPTYATAMLQNLLK
notes: The results call it CBD^1035-end, the methods give M1032; also called Myo6 CBD; CBD^1035-end; source: E. coli BL21 (DE3), purified (HisTrap IMAC, SEC); not shown: YFP, N-terminal, kept
B5: ^HisGIPC1 (His-rTEV-GIPC1 255-end) (domain or fragment, mouse, UniProt Q9Z0G0 255-333, looked up)
chain: DLPSAFEEKAIEKVDDLLESYMGIRDTELAATMVELGKDKRNPDELAEALDERLGDFAFPDEFVFDVWGAIGDAKVGRY
notes: mouse GIPC1 truncated in the N-terminus at aa D255 to keep only the GH2 domain; The ATPase assays used His-mNeonGreen-GIPC1 238-end, the MNT-1 assays ^mCherryMST-GIPC1 (239-end); also called GH2 domain; source: E. coli BL21 (DE3), purified (IMAC, SEC); not shown: His6, N-terminal, kept
B6: ^HisTOM1 (His-TOM1 207-492) (domain or fragment)
chain: DTPIAPTPEQIGKLRSELEMVSGNVRVMSEMLTELVPTQAEPADLELLQELNRTCRAMQQRVLELIPQIANEQLTEELLIVNDNLNNVFLRHERFERFRTGQTTKAPSEAEPAADLIDMGPDPAATGNLSSQLAGMNLGSSSVRAGLQSLEASGRLEDEFDMFALTRGSSLADQRKEVKYEAPQATDGLAGALDARQQSTGAIPVTQACLMEDIEQWLSTDVGNDAEEPKGVTSEEFDKFLEERAKAADRLPNLSSPSAEGPPGPPSGPAPRKKTQEKDDDMLFAL
notes: human TOM1 residues 207-end (207-492); The ATPase assays used His-YFP-TOM1 436-461, the MNT-1 assays ^mCherryMST-TOM1 (299-end); also called TOM1 207-end; source: E. coli BL21 (DE3), purified (IMAC, SEC); not shown: His6, N-terminal, kept

Data set [1] deals with the molecule itself. Description: SEC-MALS; fragments of the 3HB/SAH junction on Superdex 200 10/300 Increase, 0.5 mL/min; titration; apparent KD, dimer to monomers. On the technique in general: Size exclusion chromatography separates by hydrodynamic size, large species first.
Data set [2] deals with the molecule itself. Description: SEC-MALS; injection of 50 µL at 10 mg/mL in 10 mM Tris-HCl pH 7.5, 50 mM NaCl, 5 mM NaN3, 0.5 mM TCEP; peak concentration by the in-line refractometer.
Data set [3] concerns the target B4. In words: MST; ^YFPCBD kept at 100 nM, Ins2/IQ/3HB titrated (16 two-fold dilutions), 25 °C, 20 mM Hepes pH 7.5, 50 mM NaCl, 2.5 mM MgCl2, 1 mM TCEP, 0.05% Tween-20; motor state '-' (no Motor domain). The conditions noted are these: both partners purified.
The target of data set [4] is B6. In words: MST; ^YFPCBD kept at 100 nM, Myo6 partner titrated (16 two-fold dilutions), 25 °C, 20 mM Bis-Tris pH 6.5, 100 mM KCl, 1 mM DTT, 0.05% Tween-20. The conditions noted are these: both partners purified.
Data set [5] has as its target T1, Myo6 MD^Ins2/IQ/3HB (1-917) ( | human, UniProt Q29122 1-917; P0DP23 1-149).
T1 construct: also called Myo6-917; Myo6 Head fragment
In words: MST; ^YFPCBD kept at 100 nM, Head sample titrated (16 two-fold dilutions), 25 °C, 20 mM Hepes pH 7.5, 50 mM NaCl, 2.5 mM MgCl2, 1 mM TCEP, 0.05% Tween-20, nucleotide-free (motor state NF). The conditions noted are these: both partners purified.

Data set [6] addresses T1, Myo6 MD^Ins2/IQ/3HB (1-917). In words: MST; ^YFPCBD kept at 100 nM, Head sample titrated (16 two-fold dilutions), 25 °C, 20 mM Hepes pH 7.5, 50 mM NaCl, 2.5 mM MgCl2, 1 mM TCEP, 0.05% Tween-20, with 2 mM MgADP and 2 mM Na3VO4 (motor state ADP.VO4). The conditions noted are these: both partners purified.
The next data set has as its target T2, Myo6 MD^Ins2 (2-816) ( | human, UniProt Q29122 2-816; P0DP23 1-149).
T2 construct: also called Tail-less construct
The data set is described as above. The conditions noted are these: both partners purified.

A further data set has as its target T3, Myo6 MD (1-789) (UniProt Q29122 1-789).
T3 construct: myosin VI (Myo6) residues 1-789: Motor domain; also called Motor domain; source: Sf9/baculovirus, co-infected with human CaM virus, purified (anti-Flag resin)
Described as above. The conditions noted are these: both partners purified.

The target of data set [7] is B4. In words: MST; ^YFPCBD kept at 100 nM, Myo6 partner titrated (16 two-fold dilutions), 25 °C, 20 mM Bis-Tris pH 6.5, 100 mM KCl, 1 mM DTT, 0.05% Tween-20. The conditions noted are these: both partners purified.
The target of data set [8] is T4, full-length wild-type Myo6, small insert isoform (FLMyo6 SI (WT)) (human, UniProt Q9UM54-2 1-1262; P0DP23 1-149).
T4 construct: also called FLMyo6 (WT)
In words: pull-down. The following applies: both partners purified.

A further data set addresses T5, FLMyo6 SI (SAHmimic) (human, UniProt Q9UM54-2 1-1262; P0DP23 1-149, Glu922 to Glu935 (EAERLRRIQEEMEK) replaced with EERKRREEEERKKREEE).
T5 construct: also called FLMyo6 (SAHmimic)
Description: pull-down; anti-His pull-down on Ni2+ beads, His-partner and FLMyo6 SI (SAHmimic) 1/1 (10 µM), 1 µM extra calmodulin, 4 °C; which of the three buffers is not given. The following applies: both partners purified.

6 molecules from article PMC10593786 (Nature Communications, 2023) can be followed below.

One may read the stoichiometry N as a count of units in the complex or per binding partner.

T3 sequence (Q29122 1-789): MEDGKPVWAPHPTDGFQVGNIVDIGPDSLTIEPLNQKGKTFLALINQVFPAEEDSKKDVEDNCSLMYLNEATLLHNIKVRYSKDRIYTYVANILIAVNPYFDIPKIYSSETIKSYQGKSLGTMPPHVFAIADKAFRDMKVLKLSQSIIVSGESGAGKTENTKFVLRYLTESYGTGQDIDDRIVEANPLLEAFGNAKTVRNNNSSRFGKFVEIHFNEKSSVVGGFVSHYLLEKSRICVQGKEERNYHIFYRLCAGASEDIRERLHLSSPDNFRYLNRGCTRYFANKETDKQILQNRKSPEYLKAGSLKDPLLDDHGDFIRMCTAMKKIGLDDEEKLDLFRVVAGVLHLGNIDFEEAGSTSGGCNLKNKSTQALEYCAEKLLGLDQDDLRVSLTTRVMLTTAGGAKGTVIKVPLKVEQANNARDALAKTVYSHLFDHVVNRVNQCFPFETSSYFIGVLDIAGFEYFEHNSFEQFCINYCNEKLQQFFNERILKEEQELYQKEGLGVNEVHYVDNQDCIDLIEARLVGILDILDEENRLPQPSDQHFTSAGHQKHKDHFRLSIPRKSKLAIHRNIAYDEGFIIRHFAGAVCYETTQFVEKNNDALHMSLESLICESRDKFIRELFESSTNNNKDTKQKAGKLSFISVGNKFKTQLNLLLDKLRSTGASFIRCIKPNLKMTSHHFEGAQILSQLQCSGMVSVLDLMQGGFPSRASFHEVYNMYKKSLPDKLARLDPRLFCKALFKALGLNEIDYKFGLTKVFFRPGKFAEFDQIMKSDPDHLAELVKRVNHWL

Regarding B1, in data set [1], the Kd is approximately 19000 nM. Consider B2, for which the “stoichiometry N” value in [2] was 2. Turning to B3, the Kd in the data set with Myo6 ^YFPCBD (WT) [3] turned out to be 250 nM. As for B4, in data set [4], the binding result is on record as “binds”. The Kd in [5] was found to be 726 nM; in data set [6], 144 nM; in the data set with Myo6 MD^Ins2 (2-816) it was 343 nM; in the data set with Myo6 MD (1-789), 3920 nM. For the molecule B5, the binding result in the data set with Myo6 ^YFPCBD (WT) [7] was “binds”.

As for B6, the binding result (in [8]; with FLMyo6 SI (SAHmimic)) was “binds” in each case.
